Data reported in patent US20170260284A1 (NATIONAL CANCER CENTER, published 2017).

T1: human transmembrane protein 180 (TMEM-180), endogenous on human cancer cells (human, UniProt Q14CX5 1-517)
T1 construct: Membrane protein expressed endogenously by human colon cancer lines (DLD-1 and others), brain tumor lines and colon cancer tissue; also called TMEM-180 on DLD-1 cells
T1 sequence: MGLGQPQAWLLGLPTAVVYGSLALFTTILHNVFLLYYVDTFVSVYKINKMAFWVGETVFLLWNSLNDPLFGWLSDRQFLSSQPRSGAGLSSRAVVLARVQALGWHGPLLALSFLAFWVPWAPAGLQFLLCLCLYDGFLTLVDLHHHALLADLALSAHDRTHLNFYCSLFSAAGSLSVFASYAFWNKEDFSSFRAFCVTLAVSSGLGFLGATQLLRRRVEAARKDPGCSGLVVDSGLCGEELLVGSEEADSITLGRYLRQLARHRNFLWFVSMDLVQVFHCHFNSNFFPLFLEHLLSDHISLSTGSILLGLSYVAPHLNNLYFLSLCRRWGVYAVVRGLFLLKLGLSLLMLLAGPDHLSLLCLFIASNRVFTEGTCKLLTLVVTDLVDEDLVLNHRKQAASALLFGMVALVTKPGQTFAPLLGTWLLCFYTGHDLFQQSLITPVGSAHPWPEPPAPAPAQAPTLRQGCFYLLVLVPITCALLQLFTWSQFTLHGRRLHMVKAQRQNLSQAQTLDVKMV


Each binder was assayed against T1, human transmembrane protein 180 … (assay: flow cytometry on colon cancer and brain tumor cell lines).

Row | Binder | binding result
1 | anti-TMEM-180 antibody clone 101 (rat IgM) (antibody, V domains shown, Rat IgM from hybridoma; the entries appear to include a leader and no cleavage site is stated) VH: QVQLKETGPGLVQPTQTLSITCTVSGFSLTSYYMQWVRQTPGKGLEWMGFIRSGGSTEYNSEFKSRLSISRDTSKNQVFLKMNSLKTEDTGVYYCARAFYGGYYFDYWGQGVMVTVSS VL: DIVMTQSPTSISISVGERVTMNCKASQNVGSNVDWYQQKTGQSPKLLIYKASNRYTGVPDRFTGSGSGTDFTFTISNMQAEDLAVYYCMQSNTKYTFGAGTKLELK | binds
2 | anti-TMEM-180 antibody clone 212 (rat IgM) (antibody, V domains shown, Rat IgM from hybridoma; the entries appear to include a leader and no cleavage site is stated) VH: EVQLVESGGGLVQPGNSLKLSCAASGFTFSDYAMAWVRQSPKKGLEWVATIIYDGSSTYYRDSVKGRFTISRDNAKSTLYLQMDSLRSEDTATYYCATHWYWYFDFWGPGTMVTVSS VL: DIQMTQSPASLSASLGETVSIECLASEGISNDLAWYQQKSGKSPQLLIYAASRLQDGVPSRFSGSGSGTRYSLKISGMQPEDEADYFCQQSYKYPLTFGSGTKLEIK | binds

These binders were tested against T1, human transmembrane protein 180 … (assay: flow cytometry, hybridoma supernatant on DLD-1 cells (selection of clones)).

Row | Binder | binding result
3 | anti-TMEM-180 antibody clone 699 (rat IgM) (antibody, V domains shown, the entries appear to include a leader) VH: QVQLQQSGAELTKPGSSVKISCKASGYTFTSYDISWIKQRPGQALEWIGAINPGSGGTGYNEKFKGKATLTVDKSSSTAFMQLSSLTPEDTAVYYCARIHGGYRYWFAYWGQGTLVTVSS VL: EIVLTQSPTTMAASPGEKVTITCRASSSVSYMHWFQQKSGTSPKPWIYDTSKLASGVPDRFSGSGSGTSYSLTISSMEAEDAATYYCLQRSSYPPTFGAGTKLELK | binds
4 | anti-TMEM-180 antibody clone 1052 (rat IgM) (antibody, V domains shown, the entries appear to include a leader) VH: QVQLKESGPGLMQPSETLSLTCTVSGFSLTSNGVGWVRQPLGKGLVWMGTIWTGGGTNYNSGVQSRLSISRDTSKSQVFLKMNSLQPEDTGTYYCAREYMGFDYWGQGVMVTVSS VL: NTVMTQSPTSMFTSVGDRVTMSCKASQNVGINVGWYQQKTGQSPKRLIYWASNRDTGVPDRFTGSGSGTDFTLTISNMQAEDPAIYYCLQHNSYPRTFGGGTKLELK | binds
5 | anti-TMEM-180 antibody clone 1105 (rat IgM) (antibody, V domains shown, the entries appear to include a leader) VH: QVQLKESGPGLMQPSETLSLTCTVSGFSLTSNGVGWVRQPLGKGLVWMGTIWSGGGTNYNSAVQSRLSITRDTSKSQVFLKMNSLQPEDTGTYYCAREEKGFAYWGQGTLVTVSS VL: NIVMTQSPTSMSTSVGDRVTMSCKASQNVGINVGWYQQKTGQSPKRLIYWASNRDTGVPDRFTGSGSGTDFTLTISNMQAEDPAIYYCLQHNSYPRAFGGGTKLELR | binds
6 | anti-TMEM-180 antibody clone 382 (rat IgG) (antibody, V domains shown, the entries appear to include a leader) VH: EVQLVESGGGLVQPGRSLKLSCAASGFTFSNYGMHWIRQAPTKGLEWVASISPSGGSTYYRDSVKGRFTISRDNAKSTLYLQMDSLRSEDTATYYCATSASITAYYYVMDAWGQGASVTVSS VL: DIVMTQSPTSMSISVGDRVTMNCKASQNVGSNVDWYQQKTGQSPKLLIYKASNRYTGVPDRFTGSGSGTDFTFTISNMQAEDLAVYYCMQSNSYPPTFGGGTKLELR | binds
7 | rat IgM antibody clone 98 (anti-TMEM-180 antibody clone 98) (antibody, V domains shown, Rat IgM from hybridoma, used as culture supernatant; also called IgM 98; Anti-TMEM-180 IgM rat antibody (clone 98)) VH: QVQLKESGPGLVQPSQTLSLTCTVSGFSLTRYNVHWVRQPTGKGLEWMGVIWTGGSTDYNSALKSRLSISRDTSKSQVFLKMNSLQTEDIATYYCARDLGYWGQGVMVTVSS VL: DIVMTQTPLSLSVAIGQSASISCKSSQSLKYRDGKTYLNWVFQSPGQSPKRLIYQVSKLDSGVPDRFSGTGSETDFTLKISRVEAEDLGVYYCCQGSYSPHTFGAGTKLELK | binds
8 | anti-TMEM-180 antibody clone 129 (rat IgG) (antibody, V domains shown, the entries appear to include a leader) VH: QIQLVQSGPELKKPGESVKISCKASGYTFTDCALNWVKQAPGNGLKWMGWINTQTGKPTYADDFKQRFVFSLETSASTAYLQINNLNIEDTATYFCTREDYGYFDYWGQGVMVTVSS VL: DIQMTQSPPSLSASLGDKVTITCQASQNINKFIAWYQQKPGKAPRHLVHYTSTLVSGTPSRFSGSGSGRDYSFSISNVESEDIASYYCLQYDNLRTFGGGTKLELK | binds

What follows are binders tested against T1, human transmembrane protein 180 … (assay: flow cytometry, DLD-1 parent line against TMEM-180 knockout line; culture supernatant diluted two-fold).
Procedure: The plate was centrifuged for 3 minutes at 440×g and 4° C. followed by removing the supernatant, adding antibody-producing hybridoma culture supernatant or antibody solution to the cell pellet at 50 μL/well and suspending therein. After allowing to react for 45 minutes on ice, the plate was washed three times with a mixture of 0.1% BSA, 2 mM EDTA and PBS at 200 μL/well. The supernatant was removed and secondary antibody was added to the cell pellet at 50 μL/well followed by suspending the cells therein. AlexaFluor 647 goat anti-rat IgG (H-L) (Life Technologies Corporation) was used for the secondary antibody after diluting 400-fold with a mixture of 0.1% BSA, 2 mM EDTA and PBS. After allowing to react for 45 minutes on ice, the plate was washed three times with a mixture of 0.1% BSA, 2 mM EDTA and PBS at 200 μL/well. […] The cells stained in this manner were measured using a flow cytometer such as the Guava easyCyte 8HT (Merck Millipore Corporation) followed by analysis of the resulting data using FlowJO (Tomy Digital Biology Co., Ltd.). […]
Flow cytometry was carried out in accordance with the procedure described in the above-mentioned section 3. […] Furthermore, antibody concentration in the hybridoma culture supernatant was measured by rat IgM-specific ELISA (Bethyl Laboratories).

Row | Binder | binding result
9 | rat-human chimeric antibody clone 98 (antibody, V domains shown, Used as culture supernatant diluted two-fold; also called human chimeric IgG antibody) VH: QVQLKESGPGLVQPSQTLSLTCTVSGFSLTRYNVHWVRQPTGKGLEWMGVIWTGGSTDYNSALKSRLSISRDTSKSQVFLKMNSLQTEDIATYYCARDLGYWGQGVMVTVSS VL: DIVMTQTPLSLSVAIGQSASISCKSSQSLKYRDGKTYLNWVFQSPGQSPKRLIYQVSKLDSGVPDRFSGTGSETDFTLKISRVEAEDLGVYYCCQGSYSPHTFGAGTKLELK | binds
